Laboratory results as given in PMC2978108.

Target: recombinant GRD domain of GAPA (37 kDa GRD polypeptide) (D. discoideum)
Assay: SEC; analytical gel filtration on Sephadex G75 (SMART system) of the purified GRD domain; OD280

**Q.** For “recombinant GRD domain of GAPA (37 kDa GRD polypeptide) (domain or fragment)”, which stoichiometry N is on record?
**A.** The stoichiometry N was 3.
